Results from patent US20100240872A1 (FORERUNNER PHARMA RESEARCH, published 2010).

B1: MQ155 (antibody, IgG1, V domains shown)
VH: QVQLQQPGAELVRPGASVKLSCKASGYTFTTYWMNWVKQRPEQGLEWIGRIDPYDSETHYNQKFKDKAILTVDKSSSTAYMQLSSLTSEDSAVYYCARGPYYGTNPWFPYWGQGTLVTVSS
VL: DVQITQSPSYLAASPGETITINCRASKSISKYLAWYQEKPGKTNKLLIYSGSTLQSGIPSRFSGSGSGTDFTLTISSLEPEDFAMYYCQQHHEYPYTFGGGTKLEIK
notes: Mouse monoclonal from hybridoma, IgG1 kappa; also called anti-Muc17 antibody MQ155
B2: chi.MQ155 (anti-Muc17 mouse-human chimeric antibody MQ155) (antibody, human IgG1, kappa, V domains shown)
VH: B1 VH
VL: DVQITQSPSYLAASPGETITINCRASKSISKYLAWYQEKPGKTNKLLIYSGSTLQSGIPSRFSGSGSGTDFTLTISSLEPEDFAMYYCQQHHEYPYTFGGGTKLEIKR
notes: Human IgG1 / kappa constant regions; also called chi.MQ155(DG); chi.MQ155(FTKO)

How the values were obtained:
[1] = target: T1, GST_Muc17ct_del2 (4244Ser-4390Leu) (human, UniProt Q685J3 4244-4390); assay: ELISA, GST fusion immobilized at 1 µg/mL
T1 construct: not shown: GST encoded by vector pGEX4T-3 (Takara Bio)

[2] = target: T2, GST_Muc17ct_del3 (4115Thr-4243Gly) (human, UniProt Q685J3 4115-4243); assay: ELISA, GST fusion immobilized at 1 µg/mL
T2 construct: not shown: GST encoded by vector pGEX4T-3 (Takara Bio)

[3] = target: T3, Muc17ct_mIgG2aFc (soluble human Muc17ct / mouse IgG2a Fc fusion protein) (human); assay: ELISA screening of hybridoma supernatant on immobilized Muc17ct_mIgG2aFc
[4] = target: T3, Muc17ct_mIgG2aFc (soluble human Muc17ct …); assay: ELISA, Muc17ct_mIgG2aFc coated at 1 µg/mL, anti-human kappa chain detection
Experimental: Muc17ct_mIgG2aFc protein was diluted with coating buffer (0.1 mol/L NaHCO₃ (pH 9.6), 0.02% (w/v) NaN₃) to give 1 μg/mL of Muc17ct_mIgG2aFc protein, and added to an immunoplate for overnight at 4° C. for coating. The plate was blocked with dilution buffer (50 mM Tris-HCl (pH 8.1), 1 mM MgCl₂, 150 mM NaCl, 0.05% (v/v) Tween20, 0.02% (w/v) NaN₃, 1% (w/v) BSA); then the anti-Muc17 antibody was added for 1 hour at room temperature. After washing with rinse buffer (0.05% (v/v) Tween20, PBS), an alkali phosphatase-labeled anti-human κ chain antibody (Sigma, CAT#A3813) was added for 1 hour at room temperature. After washing with rinse buffer, SIGMA104 (Sigma) diluted at 1 mg/mL in the substrate buffer (50 mM NaHCO₃ (pH 9.8), 10 mM MgCl₂) was added. After color development for 1 hour at room temperature, the absorbance (405 nm, reference 655 nm) was measured using a Benchmark Plus (BIO-RAD Laboratories, Inc.).

[5] = target: Mucin 17 (Muc17) on AsPc1 pancreatic cancer cells (human, UniProt Q685J3 26-4493); assay: flow cytometry on AsPc1 cells, FITC anti-human IgG detection
Experimental: Binding of the antibodies to a pancreatic cancer cell line AsPc1 was evaluated by flow cytometry. The cells were suspended in FACS buffer (1% FBS/PBS) at 5×10⁵ cells/mL and dispensed into Multiscreen-HV Filter Plates (Millipore), and the supernatant was removed by centrifugation. Anti-Muc17 antibody diluted to a suitable concentration was added and reacted for 30 minutes on ice. The cells were washed once with FACS buffer. FITC-labeled anti-human IgG antibody was added, and reacted for 30 minutes on ice. Then the supernatant was removed by centrifugation, the cell were suspended in 100 μL FACS buffer and applied to flow cytometry. Flow cytometry was run on FACS Calibur (Becton, Dickinson and Company). The viable cell population was gated with a forward scatter and side scatter histogram.

T3 sequence (chain, as listed by the source limits assumed): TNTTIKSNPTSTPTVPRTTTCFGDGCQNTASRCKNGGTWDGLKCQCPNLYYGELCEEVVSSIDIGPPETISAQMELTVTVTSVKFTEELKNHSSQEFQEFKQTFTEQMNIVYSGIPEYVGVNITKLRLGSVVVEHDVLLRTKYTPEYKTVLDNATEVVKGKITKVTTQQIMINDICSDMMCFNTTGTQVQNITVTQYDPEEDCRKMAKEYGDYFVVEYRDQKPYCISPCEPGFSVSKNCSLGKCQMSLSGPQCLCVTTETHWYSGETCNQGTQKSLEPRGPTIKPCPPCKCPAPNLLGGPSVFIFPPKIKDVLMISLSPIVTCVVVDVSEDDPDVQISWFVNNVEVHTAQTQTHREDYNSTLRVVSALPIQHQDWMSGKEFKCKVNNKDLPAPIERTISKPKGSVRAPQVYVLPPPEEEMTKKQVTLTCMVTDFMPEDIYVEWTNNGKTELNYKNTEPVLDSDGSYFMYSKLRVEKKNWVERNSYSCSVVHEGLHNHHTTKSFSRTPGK

Binder | binding result [1] | binding result [2] | binding result [3] | binding result [4] | binding result [5]
B1 | no binding (tested: 3 µg/mL) | no binding (tested: 3 µg/mL) | binds | – | –
B2 | – | – | – | binds | binds
